Results published in article PMC12403049, “Structural basis of ClC-3 transporter inhibition by TMEM9 and PtdIns(3,5)P2” (Nature Structural & Molecular Biology, 2025).

How the values were obtained:
[1] = target: the molecule itself; assay: cryo-EM structure; ClC-3 alone, 3 mg/ml, no exogenous ligands, glyco-diosgenin, 50 mM Tris-HCl pH 8, 150 mM KCl, 2 mM DTT; C2 symmetry
[2] = target: the molecule itself; assay: cryo-EM structure; ClC-3 co-expressed and co-purified with T9A, 5 mg/ml, no exogenous ligands, glyco-diosgenin, 50 mM Tris-HCl pH 8, 150 mM KCl, 2 mM DTT; four classes by 3D classification

B1: human ClC-3 purified alone (C-terminal mCerulean tag removed) (natural protein)
chain: MESEQLFHRGYYRNSYNSITSASSDEELLDGAGVIMDFQTSEDDNLLDGDTAVGTHYTMTNGGSINSSTHLLDLLDEPIPGVGTYDDFHTIDWVREKCKDRERHRRINSKKKESAWEMTKSLYDAWSGWLVVTLTGLASGALAGLIDIAADWMTDLKEGICLSALWYNHEQCCWGSNETTFEERDKCPQWKTWAELIIGQAEGPGSYIMNYIMYIFWALSFAFLAVSLVKVFAPYACGSGIPEIKTILSGFIIRGYLGKWTLMIKTITLVLAVASGLSLGKEGPLVHVACCCGNIFSYLFPKYSTNEAKKREVLSAASAAGVSVAFGAPIGGVLFSLEEVSYYFPLKTLWRSFFAALVAAFVLRSINPFGNSRLVLFYVEYHTPWYLFELFPFILLGVFGGLWGAFFIRANIAWCRRRKSTKFGKYPVLEVIIVAAITAVIAFPNPYTRLNTSELIKELFTDCGPLESSSLCDYRNDMNASKIVDDIPDRPAGIGVYSAIWQLCLALIFKIIMTVFTFGIKVPSGLFIPSMAIGAIAGRIVGIAVEQLAYYHHDWFIFKEWCEVGADCITPGLYAMVGAAACLGGVTRMTVSLVVIVFELTGGLEYIVPLMAAVMTSKWVGDAFGREGIYEAHIRLNGYPFLDAKEEFTHTTLAADVMRPRRNDPPLAVLTQDNMTVDDIENMINETSYNGFPVIMSKESQRLVGFALRRDLTIAIESARKKQEGIVGSSRVCFAQHTPSLPAESPRPLKLRSILDMSPFTVTDHTPMEIVVDIFRKLGLRQCLVTHNGRLLGIITKKDILRHMAQTANQDPASIMFN
notes: human ClC-3 (P51790), the long isoform used for structural analysis (proton glutamate E339); The cloning of a C-terminally tagged ClC-3 is not described elsewhere in the methods; Residues of the PreScission linker may be left after cleavage; also called ligand-free human ClC-3; not shown: mCerulean, C-terminal, cleaved
B1 was tested, and the “stoichiometry N” value [1] was 2.

B2: human ClC-3 purified in complex with T9A (N-terminal mCerulean tag removed) (natural protein)
chain: B1 chain
notes: human ClC-3 (P51790), the long isoform used for structural analysis (proton glutamate E339); Residues of the PreScission linker may be left on the N-terminus after cleavage; PtdIns(3,5)P2 co-purified with the complex; also called ClC-3/T9A; ClC-3/noT9A; not shown: mCerulean, N-terminal, cleaved
B2 was tested, and the “stoichiometry N” value [2] was 2.
